Series [1] has as its target T1, Glycolyl-CoA Carboxylase GCC M5 variant G20R (Methylorubrum extorquens propionyl-CoA carboxylase variant G20R, L100S, Y143H, D407I, I450V, W502R); β-subunit SEQ (Methylorubrum extorquens, UniProt C5AP75, D407I/G20R/I450V/L100S/W502R/Y143H).
T1 construct: overexpressed in E. coli BL21-birA with M. extorquens biotin ligase
T1 sequence (C5AP75 1-510 G20R/L100S/Y143H/D407I/I450V/W502R): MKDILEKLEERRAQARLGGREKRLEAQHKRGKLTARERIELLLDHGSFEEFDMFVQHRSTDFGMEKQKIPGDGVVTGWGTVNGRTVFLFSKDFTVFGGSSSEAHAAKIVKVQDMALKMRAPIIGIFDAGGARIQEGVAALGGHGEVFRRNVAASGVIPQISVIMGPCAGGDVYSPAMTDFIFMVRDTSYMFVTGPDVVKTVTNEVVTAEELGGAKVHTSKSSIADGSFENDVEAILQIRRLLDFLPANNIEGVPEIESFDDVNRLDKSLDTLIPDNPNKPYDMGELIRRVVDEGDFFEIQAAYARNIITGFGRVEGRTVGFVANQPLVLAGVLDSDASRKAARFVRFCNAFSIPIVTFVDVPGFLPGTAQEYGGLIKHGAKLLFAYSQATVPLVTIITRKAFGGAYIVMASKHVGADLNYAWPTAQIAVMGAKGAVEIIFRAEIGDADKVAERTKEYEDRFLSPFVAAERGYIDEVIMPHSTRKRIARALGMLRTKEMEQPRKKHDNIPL
T1 sequence (C5AWU5 1-667 partner): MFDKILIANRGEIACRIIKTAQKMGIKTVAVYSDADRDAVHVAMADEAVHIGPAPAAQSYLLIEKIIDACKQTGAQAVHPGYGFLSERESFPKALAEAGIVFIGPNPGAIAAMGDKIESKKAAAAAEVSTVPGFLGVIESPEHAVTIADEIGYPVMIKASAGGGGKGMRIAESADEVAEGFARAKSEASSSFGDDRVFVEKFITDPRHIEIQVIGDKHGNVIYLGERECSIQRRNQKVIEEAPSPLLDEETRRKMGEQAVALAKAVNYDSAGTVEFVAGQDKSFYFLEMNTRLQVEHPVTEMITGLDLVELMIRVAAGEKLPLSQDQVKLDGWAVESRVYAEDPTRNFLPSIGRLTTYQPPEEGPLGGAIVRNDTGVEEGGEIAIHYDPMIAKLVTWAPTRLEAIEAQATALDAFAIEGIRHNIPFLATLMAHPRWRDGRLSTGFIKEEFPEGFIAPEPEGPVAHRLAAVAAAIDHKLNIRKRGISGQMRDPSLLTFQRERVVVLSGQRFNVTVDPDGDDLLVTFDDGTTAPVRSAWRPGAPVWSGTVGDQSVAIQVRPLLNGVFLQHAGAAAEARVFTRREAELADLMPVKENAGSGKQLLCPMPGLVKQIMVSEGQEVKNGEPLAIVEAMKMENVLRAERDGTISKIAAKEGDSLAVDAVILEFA
Put plainly: Kinetic characterization of GCC M5 G20R (Vmax, kcat, App. KM) using LC-MS assays. Format: biochemical. An excerpt:
The carboxylation activity can be measured as catalytic rate of carboxylation of glycolyl-CoA (conversion of glycolyl-CoA into tartronyl-CoA) (Scheffen, loc. cit.). Catalytic rate (kcat) is here defined as the maximum formation rate of tartronyl-CoA out of glycolyl-CoA and HCO3^−. It describes how many mol of the substrate are converted per time and per mol of enzyme. It can only be approximated as it requires 100% substrate saturation of the active sites. Therefore, turnover rates at different initial substrate concentrations can be measured to compute the catalytic rate with the Michaelis-Menten equation.

The test system of series [2] is Glycolyl-CoA Carboxylase GCC M5 (Methylorubrum extorquens propionyl-CoA carboxylase variant L100S, Y143H, D407I, I450V, W502R; β-subunit SEQ ID NO: 1 …). Conditions: cited from earlier work.
Substrate in series [3]: CC(=O)SCCNC(=O)CCNC(=O)[C@H](O)C(C)(C)COP(=O)(O)OP(=O)(O)OC[C@H]1O[C@@H](n2cnc3c(N)ncnc32)[C@H](O)[C@@H]1OP(=O)(O)O
Put plainly: Kinetic characterization of GCC M5 G20R (Vmax, kcat, App. KM) using LC-MS assays. Format: biochemical, Methylorubrum extorquens. Conditions: other: G20R; means±s.d., n=18, nonlinear regression.
From the text: (§1) The data represent means±s.d., as determined from n=18 independent measurements using nonlinear regression.

Substrate in series [4]: CC(C)(COP(=O)(O)OP(=O)(O)OC[C@H]1O[C@@H](n2cnc3c(N)ncnc32)[C@H](O)[C@@H]1OP(=O)(O)O)[C@@H](O)C(=O)NCCC(=O)NCCSC(=O)CO
The series is described as above. Format: biochemical, Methylorubrum extorquens. Conditions: other: G20R; means±s.d., n=18, nonlinear regression.
From the text: as §1

Substrate in series [5]: CC(=O)SCCNC(=O)CCNC(=O)[C@H](O)C(C)(C)COP(=O)(O)OP(=O)(O)OC[C@H]1O[C@@H](n2cnc3c(N)ncnc32)[C@H](O)[C@@H]1OP(=O)(O)O
Put plainly: Kinetic characterization of GCC M5 S100N (Vmax, kcat, App. KM) using LC-MS assays. Format: biochemical, Methylorubrum extorquens. Conditions: other: S100N; means±s.d., n=18, nonlinear regression.
From the text: as §1

Substrate in series [6]: CC(C)(COP(=O)(O)OP(=O)(O)OC[C@H]1O[C@@H](n2cnc3c(N)ncnc32)[C@H](O)[C@@H]1OP(=O)(O)O)[C@@H](O)C(=O)NCCC(=O)NCCSC(=O)CO
The description is as above. Format: biochemical, Methylorubrum extorquens. Conditions: other: S100N; means±s.d., n=18, nonlinear regression.
From the text: as §1

Series [7] concerns the target T2, GCC M5_G20R (M. extorquens) β-subunit G20R, L100S, Y143H, D407I, I450V, W502R mutations.
T2 chain: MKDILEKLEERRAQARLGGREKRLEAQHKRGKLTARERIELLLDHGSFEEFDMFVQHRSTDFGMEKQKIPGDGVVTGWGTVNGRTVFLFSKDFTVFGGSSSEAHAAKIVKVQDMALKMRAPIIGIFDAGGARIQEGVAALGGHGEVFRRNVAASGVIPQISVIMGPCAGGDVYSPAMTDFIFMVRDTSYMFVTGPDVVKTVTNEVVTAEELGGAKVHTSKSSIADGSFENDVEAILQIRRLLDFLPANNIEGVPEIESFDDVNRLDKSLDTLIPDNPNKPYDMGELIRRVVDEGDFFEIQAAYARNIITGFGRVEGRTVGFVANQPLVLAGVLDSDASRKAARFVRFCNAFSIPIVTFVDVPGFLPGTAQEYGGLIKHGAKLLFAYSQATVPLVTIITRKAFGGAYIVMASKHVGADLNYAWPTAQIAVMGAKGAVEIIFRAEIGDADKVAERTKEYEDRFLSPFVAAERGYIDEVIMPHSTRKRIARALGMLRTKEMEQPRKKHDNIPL

Setting [8] is: means±s.d., reference Scheffen loc. cit.

Consider four molecules from patent publication US20260258394A1, “PLANT ENZYMES WITH IMPROVED ACTIVITY” (MAX-PLANCK-GESELLSCHAFT ZUR FÖRDERUNG DER WISSENSCHAFTEN …, priority 2023, published 2026).

The term Km denotes the substrate concentration at which the rate is half of its maximum. For orientation: Vmax means the top rate of the reaction or transport when substrate is in excess. Broadly, the kcat/KM is the second-order rate constant that governs catalysis at low substrate concentration. Consider `CC(C)(COP(=O)(O)OP(=O)(O)OC[C@H]1O[C@@H](n2cnc3c(N)ncnc32)[C@H](O)[C@@H]1OP(=O)(O)O)[C@@H](O)C(=O)NCCC(=O)NCCSC(=O)CO` [Glycolyl-CoA, glycolyl-CoA], for which the “Vmax, fold higher than GCC M5” value in series [1] (G20R versus GCC M5) was 1.8 -fold. Further, in series [1] (G20R versus GCC M5, result in words), the “apparent KM value for glycolyl-CoA (change versus GCC M5)” value is listed as “slightly increased”. Moreover, the kcat in series [1] (G20R, unit not given) stood at 9.8±0.2. For the same molecule, in series [2] (Scheffen, Nat. Catal. 4, 105-115, 2021), the “catalytic rate of carboxylation of glycolyl-CoA” value is 5.6 ± 0.3 s⁻¹. Besides, the Km in series [2] (means±s.d., reference Scheffen loc. cit., read-out: App. KM) was 150 ± 30 µM. In series [2] (setting [8]), the Vmax is 2590 ± 130 nmol/min/mg and the kcat was 5.6 ± 0.3 s⁻¹. In addition, the catalytic efficiency (kcat/KM) in series [2] (reference Scheffen loc. cit.) was 36300 M⁻¹ s⁻¹.

B1: Glycolyl-CoA Carboxylase GCC M5 variant G20R (Methylorubrum extorquens propionyl-CoA carboxylase variant G20R, L100S, Y143H, D407I, I450V, W502R; β-subunit SEQ … (protein)
chain: MKDILEKLEERRAQARLGGREKRLEAQHKRGKLTARERIELLLDHGSFEEFDMFVQHRSTDFGMEKQKIPGDGVVTGWGTVNGRTVFLFSKDFTVFGGSSSEAHAAKIVKVQDMALKMRAPIIGIFDAGGARIQEGVAALGGHGEVFRRNVAASGVIPQISVIMGPCAGGDVYSPAMTDFIFMVRDTSYMFVTGPDVVKTVTNEVVTAEELGGAKVHTSKSSIADGSFENDVEAILQIRRLLDFLPANNIEGVPEIESFDDVNRLDKSLDTLIPDNPNKPYDMGELIRRVVDEGDFFEIQAAYARNIITGFGRVEGRTVGFVANQPLVLAGVLDSDASRKAARFVRFCNAFSIPIVTFVDVPGFLPGTAQEYGGLIKHGAKLLFAYSQATVPLVTIITRKAFGGAYIVMASKHVGADLNYAWPTAQIAVMGAKGAVEIIFRAEIGDADKVAERTKEYEDRFLSPFVAAERGYIDEVIMPHSTRKRIARALGMLRTKEMEQPRKKHDNIPL
notes: overexpressed in E. coli BL21-birA with M. extorquens biotin ligase
As a reminder, the kcat/Km is the turnover number divided by the Michaelis constant. B1: in series [3], the Km came to 380 ± 100 µM, the Vmax is 2.25 µmol/min/mg, the kcat worked out at 4.9 ± 0.4 s⁻¹ and the kcat/Km stood at 13000 M⁻¹ s⁻¹. In series [4], the Michaelis constant (Km) came to 270 ± 20 µM, the Vmax is 4.52 µmol/min/mg, the kcat worked out at 9.8 ± 0.2 s⁻¹ and the kcat/Km was 36400 M⁻¹ s⁻¹.

B2: Glycolyl-CoA Carboxylase GCC M5 variant S100N (= L100N; Methylorubrum extorquens propionyl-CoA carboxylase variant L100N, Y143H, D407I, I450V, W502R; β-subunit … (protein)
chain: MKDILEKLEERRAQARLGGGEKRLEAQHKRGKLTARERIELLLDHGSFEEFDMFVQHRSTDFGMEKQKIPGDGVVTGWGTVNGRTVFLFSKDFTVFGGSNSEAHAAKIVKVQDMALKMRAPIIGIFDAGGARIQEGVAALGGHGEVFRRNVAASGVIPQISVIMGPCAGGDVYSPAMTDFIFMVRDTSYMFVTGPDVVKTVTNEVVTAEELGGAKVHTSKSSIADGSFENDVEAILQIRRLLDFLPANNIEGVPEIESFDDVNRLDKSLDTLIPDNPNKPYDMGELIRRVVDEGDFFEIQAAYARNIITGFGRVEGRTVGFVANQPLVLAGVLDSDASRKAARFVRFCNAFSIPIVTFVDVPGFLPGTAQEYGGLIKHGAKLLFAYSQATVPLVTIITRKAFGGAYIVMASKHVGADLNYAWPTAQIAVMGAKGAVEIIFRAEIGDADKVAERTKEYEDRFLSPFVAAERGYIDEVIMPHSTRKRIARALGMLRTKEMEQPRKKHDNIPL
notes: as for B1
Consider B2, for which, in series [5], the Michaelis constant (Km) came out at 630 ± 100 µM, the Vmax came to 0.174 µmol/min/mg, the kcat amounted to 0.38 ± 0.03 s⁻¹ and the kcat/Km turned out to be 596 M⁻¹ s⁻¹. For the same molecule, in series [6], the Km came out at 320 ± 50 µM, the maximum rate (Vmax) turned out to be 0.79 µmol/min/mg, the kcat was 1.7 ± 0.1 s⁻¹ and the kcat/Km came to 5360 M⁻¹ s⁻¹.

B3: PCC WT (M. extorquens) α-subunit (protein)
chain: MFDKILIANRGEIACRIIKTAQKMGIKTVAVYSDADRDAVHVAMADEAVHIGPAPAAQSYLLIEKIIDACKQTGAQAVHPGYGFLSERESFPKALAEAGIVFIGPNPGAIAAMGDKIESKKAAAAAEVSTVPGFLGVIESPEHAVTIADEIGYPVMIKASAGGGGKGMRIAESADEVAEGFARAKSEASSSFGDDRVFVEKFITDPRHIEIQVIGDKHGNVIYLGERECSIQRRNQKVIEEAPSPLLDEETRRKMGEQAVALAKAVNYDSAGTVEFVAGQDKSFYFLEMNTRLQVEHPVTEMITGLDLVELMIRVAAGEKLPLSQDQVKLDGWAVESRVYAEDPTRNFLPSIGRLTTYQPPEEGPLGGAIVRNDTGVEEGGEIAIHYDPMIAKLVTWAPTRLEAIEAQATALDAFAIEGIRHNIPFLATLMAHPRWRDGRLSTGFIKEEFPEGFIAPEPEGPVAHRLAAVAAAIDHKLNIRKRGISGQMRDPSLLTFQRERVVVLSGQRFNVTVDPDGDDLLVTFDDGTTAPVRSAWRPGAPVWSGTVGDQSVAIQVRPLLNGVFLQHAGAAAEARVFTRREAELADLMPVKENAGSGKQLLCPMPGLVKQIMVSEGQEVKNGEPLAIVEAMKMENVLRAERDGTISKIAAKEGDSLAVDAVILEFA
In the case of B3, in series [7], the Specific activity (nmol min^-1 mg^-1) (nmol min^-1 mg^-1) is 2600; the Vmax [nmol min^-1 mg^-1], glycolyl-CoA (nmol min^-1 mg^-1) turned out to be 4520; the kcat [s^-1], glycolyl-CoA was 9.8 s⁻¹.
